Reference: patent US20050037969A1 (ARBOR VITA, published 2005)
Ends that are not written are not given here. * marks the point of attachment. Biotin = O=C1N[C@H]2[C@H](CS[C@H]2CCCCC(=O)*)N1

Key:
Experiment in all cases: A/G assays
[1] = molecular target: T1, GST-DVL1 PDZ domain fusion protein (human, UniProt O14640 247-339)
T1 construct: also called human dishevelled segment polarity protein homolog; not shown: glutathione S-transferase encoded by vector pGEX-3X (Pharmacia)
T1 sequence: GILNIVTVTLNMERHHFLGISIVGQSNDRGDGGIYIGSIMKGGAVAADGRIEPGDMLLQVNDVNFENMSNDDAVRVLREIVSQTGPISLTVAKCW

[2] = molecular target: T2, K316 PDZ-GST fusion protein (Homo sapiens (Human), UniProt Q14CM0 72-159)
T2 construct: Order of GST and PDZ part and limits not seen in the excerpts

[3] = molecular target: T3, GST-DLG5 (p-dlg) PDZ domain fusion protein (Human, UniProt Q8TDM6 1343-1583)
T3 construct: also called Human discs large protein p-dlg; not shown: glutathione S-transferase encoded by vector pGEX-3X (Pharmacia)
T3 sequence: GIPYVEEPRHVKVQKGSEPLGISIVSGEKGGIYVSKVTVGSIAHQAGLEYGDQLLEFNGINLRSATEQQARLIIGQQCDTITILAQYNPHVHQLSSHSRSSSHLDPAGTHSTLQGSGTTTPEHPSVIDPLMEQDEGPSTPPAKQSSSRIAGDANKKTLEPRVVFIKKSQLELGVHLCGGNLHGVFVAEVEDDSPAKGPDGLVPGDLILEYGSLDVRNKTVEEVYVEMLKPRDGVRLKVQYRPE

[4] = molecular target: T4, GEF PDZ-GST fusion protein (Homo sapiens (Human), UniProt Q8TEU7 293-400)
T4 construct: The label GEF is not explained in the excerpts
T4 sequence: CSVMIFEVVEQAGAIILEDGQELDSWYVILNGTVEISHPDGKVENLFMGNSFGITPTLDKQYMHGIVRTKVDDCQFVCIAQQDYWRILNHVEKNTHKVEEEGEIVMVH

[5] = molecular target: T5, K559 PDZ-GST fusion protein (Homo sapiens (Human), UniProt Q9Y6V0 4489-4593)
T5 construct: Order of GST and PDZ part and limits not seen in the excerpts
T5 sequence: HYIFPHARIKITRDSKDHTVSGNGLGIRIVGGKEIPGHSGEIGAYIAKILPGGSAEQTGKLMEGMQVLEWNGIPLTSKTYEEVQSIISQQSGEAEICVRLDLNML

[6] = molecular target: T6, NOS1 PDZ-GST fusion protein (Homo sapiens (Human), UniProt P29475 11-100)
T6 construct: Order of GST and PDZ part and limits not seen in the excerpts

[7] = molecular target: T7, MINT3 PDZ-GST fusion protein
T7 construct: Order of GST and PDZ part and limits not seen in the excerpts
T7 chain: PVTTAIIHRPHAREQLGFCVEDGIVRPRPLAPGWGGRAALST

[8] = molecular target: T8, KIAA0807 (PDZ domain)-GST fusion protein (human, UniProt Q6P0Q8 1104-1192)
T8 construct: also called K807; KIAA807; not shown: glutathione S-transferase encoded by vector pGEX-3X (Pharmacia)
T8 sequence: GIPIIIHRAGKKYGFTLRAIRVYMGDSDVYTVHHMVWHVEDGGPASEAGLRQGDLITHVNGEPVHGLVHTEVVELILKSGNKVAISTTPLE

[9] = molecular target: T9, PICK1 PDZ-GST fusion protein (Bos taurus (Bovine), UniProt Q2T9M1 17-105)
T9 construct: Order of GST and PDZ part and limits not seen in the excerpts

[10] = molecular target: T10, GST-PTN-4 PDZ domain fusion protein (Homo sapiens (Human), UniProt P29074 517-605)
T10 construct: also called protein-tyrosine phosphatase meg1; not shown: glutathione S-transferase encoded by vector pGEX-3X (Pharmacia)
T10 sequence: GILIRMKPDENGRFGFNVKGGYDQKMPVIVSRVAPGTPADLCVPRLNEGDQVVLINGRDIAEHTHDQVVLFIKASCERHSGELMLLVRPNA

[11] = molecular target: T11, TAX-IP33 PDZ-GST fusion protein (Homo sapiens (Human), UniProt O14910 103-193)
T11 construct: Order of GST and PDZ part and limits not seen in the excerpts
T11 sequence: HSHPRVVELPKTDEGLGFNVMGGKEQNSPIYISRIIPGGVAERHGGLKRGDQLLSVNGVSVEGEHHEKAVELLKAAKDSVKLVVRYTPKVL

[12] = molecular target: T12, GST-TAX-IP43 PDZ domain fusion protein (human, UniProt Q13884 109-180)
T12 construct: also called TAX43; not shown: glutathione S-transferase encoded by vector pGEX-3X (Pharmacia)
T12 sequence: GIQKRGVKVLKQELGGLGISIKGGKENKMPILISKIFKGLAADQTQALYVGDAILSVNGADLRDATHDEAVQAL

[13] = molecular target: T13, SP short PDZ-GST fusion protein (Homo sapiens (Human), UniProt O43464 350-435)
T13 construct: The label SP short is not explained in the excerpts
T13 sequence: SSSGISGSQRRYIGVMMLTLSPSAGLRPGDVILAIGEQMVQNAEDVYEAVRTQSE

[14] = molecular target: T14, TAX-IP2L PDZ-GST fusion protein (Homo sapiens (Human), UniProt Q8TF64 107-197)
T14 construct: Order of GST and PDZ part and limits not seen in the excerpts
T14 sequence: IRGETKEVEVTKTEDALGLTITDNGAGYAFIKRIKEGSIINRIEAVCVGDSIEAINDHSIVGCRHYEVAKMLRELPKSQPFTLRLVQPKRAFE

[15] = molecular target: T15, GST-KIAA0303 PDZ domain fusion protein (Homo sapiens (Human), UniProt O15021 1138-1228)
T15 construct: also called K303; not shown: glutathione S-transferase encoded by vector pGEX-3X (Pharmacia)
T15 sequence: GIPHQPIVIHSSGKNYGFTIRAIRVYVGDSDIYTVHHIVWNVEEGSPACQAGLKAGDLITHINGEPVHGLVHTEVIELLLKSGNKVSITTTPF

[16] = molecular target: T16, GST-CASK PDZ domain fusion protein (Homo sapiens, UniProt O14936 486-575)
T16 construct: also called Homo sapiens CASK protein
T16 sequence: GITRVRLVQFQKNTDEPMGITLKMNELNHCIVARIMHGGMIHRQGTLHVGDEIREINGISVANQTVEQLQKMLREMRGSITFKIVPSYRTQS

[17] = molecular target: T17, GST-mouse syntenin fusion protein (Mus musculus, UniProt O08992 108-286)
T17 construct: also called Mus musculus Syntenin; not shown: glutathione S-transferase encoded by vector pGEX-3X (Pharmacia)
T17 chain: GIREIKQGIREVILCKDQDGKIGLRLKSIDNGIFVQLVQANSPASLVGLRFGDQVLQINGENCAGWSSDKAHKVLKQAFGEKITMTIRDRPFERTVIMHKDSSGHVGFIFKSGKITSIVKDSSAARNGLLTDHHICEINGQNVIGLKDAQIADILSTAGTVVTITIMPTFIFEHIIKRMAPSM

Measured: binding result

T6 sequence (P29475 11-100 limits assumed): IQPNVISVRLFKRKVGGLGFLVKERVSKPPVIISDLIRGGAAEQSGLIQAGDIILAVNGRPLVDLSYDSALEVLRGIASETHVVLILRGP
T2 sequence (Q14CM0 72-159 limits assumed): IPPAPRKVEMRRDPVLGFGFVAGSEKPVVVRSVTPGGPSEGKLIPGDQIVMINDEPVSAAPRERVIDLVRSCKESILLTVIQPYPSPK
T9 sequence (Q2T9M1 other isoform, or with tags, fused parts or gaps limits assumed): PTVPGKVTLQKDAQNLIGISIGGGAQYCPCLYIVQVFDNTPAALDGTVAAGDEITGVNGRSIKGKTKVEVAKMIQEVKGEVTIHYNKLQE

B1: CD138 C-terminal peptide AA18L, biotinylated (peptide)
peptide: Biotin-PKQANGGAYQKPTKQEEFYA
notes: also called CD138 (syndecan-1); CD138 (syndecan)
not listed: [16] | [17]
no binding: all other assays above

Biotin-TREDIYVNYPTFSRRPKTRV [DNAM-1 C-terminal peptide AA22L, biotinylated]
not listed: [6]
no binding: all other assays above

Biotin-KDSRPSFVGSSSGHTSTTL (also called CDW128E (IL8RB)) [CDW128B (IL8RB) C-terminal peptide AA29.2L, biotinylated]
not listed: [8]
no binding: all other assays above

Biotin-EVICYIEKPGVETLEDSVF [CDW125 (IL5R) C-terminal peptide AA28L, biotinylated]
not listed: [10]
no binding: all other assays above

Biotin-QFMTADETRNLQNVDMKIGV (also called CD44 (long form)) [CD44 C-terminal peptide AA9L, biotinylated]
not listed: [17]
no binding: all other assays above

Biotin-QATSENGHSARQHVVADTEL [CD34 C-terminal peptide AA7L, biotinylated]
not listed: [8]
no binding: all other assays above

B2: CDw137 (4-1BB ILA) C-terminal peptide AA21L (peptide)
peptide: Biotin-QEEDGCSCRFPEEEEGGCEL
modifications: cysteine pairing not given here
notes: Marked (S), sticky peptide with high background; also called CDw137 (4-1BB ILA) (S)
not listed: [2] | [4] | [5] | [9] | [11] | [13] | [14]
no binding: all other assays above

B3: V-gated Ca2+ channel C-terminal peptide AA46L (peptide)
peptide: Biotin-SSGGRARHSYHHPDQDHWC
notes: Marked (S), sticky peptide with high background; also called V-gated Ca2+ channel (S)
not listed: [2] | [4] | [9] | [11] | [13] | [14]
no binding: all other assays above
